This passage reports inhibition of ethidium bromide efflux from E. coli K12 cells (fluorescence decay), peptide 4 uM results from patent US20200317736A1.

The target in the assay is Multidrug transporter EmrE (Escherichia coli (strain K12)) (Escherichia coli (strain K12)) (UniProt P23895). Put plainly: cell-based or functional assay.
Sequence of UniProt P23895 (P23895 whole entry): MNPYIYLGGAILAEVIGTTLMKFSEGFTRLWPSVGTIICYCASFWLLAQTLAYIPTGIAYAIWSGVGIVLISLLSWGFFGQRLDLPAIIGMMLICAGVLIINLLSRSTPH
Regarding A87-I94 (peptide), the inhibition of ethidium bromide efflux from E. coli K12 cells (fluorescence decay), peptide 4 uM is 60%.

The substance M92-L99 (peptide) had an inhibition of ethidium bromide efflux from E. coli K12 cells (fluorescence decay), peptide 4 uM of 68%.

Consider I89-A96 (peptide), for which the inhibition of ethidium bromide efflux from E. coli K12 cells (fluorescence decay), peptide 4 uM worked out at 26%.
